Reference: patent US20160331662A1, “Compositions that Inhibit and Prevent the Formation of Dental Caries and Methods of Using the Same” (priority 2014, published 2016)
No end group written: not given here. FAM = fluorescein amidite

T1: A3VP1^AgI/II (Streptococcus mutans UA159), P23504
T1 chain: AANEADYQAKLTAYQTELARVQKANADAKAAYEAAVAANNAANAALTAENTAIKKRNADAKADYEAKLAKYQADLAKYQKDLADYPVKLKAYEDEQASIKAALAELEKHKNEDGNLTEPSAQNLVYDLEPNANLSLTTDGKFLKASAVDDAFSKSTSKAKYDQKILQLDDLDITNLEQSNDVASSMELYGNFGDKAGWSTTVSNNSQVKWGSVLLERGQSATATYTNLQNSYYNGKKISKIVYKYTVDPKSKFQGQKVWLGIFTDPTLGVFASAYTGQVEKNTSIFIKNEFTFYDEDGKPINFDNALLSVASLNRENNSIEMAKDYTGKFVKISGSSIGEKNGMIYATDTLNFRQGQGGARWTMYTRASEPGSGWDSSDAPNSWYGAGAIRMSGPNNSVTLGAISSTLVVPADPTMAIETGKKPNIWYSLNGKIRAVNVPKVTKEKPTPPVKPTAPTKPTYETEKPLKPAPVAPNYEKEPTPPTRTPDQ

T2: C123^AgI/II (Streptococcus mutans UA159), P23504
T2 chain: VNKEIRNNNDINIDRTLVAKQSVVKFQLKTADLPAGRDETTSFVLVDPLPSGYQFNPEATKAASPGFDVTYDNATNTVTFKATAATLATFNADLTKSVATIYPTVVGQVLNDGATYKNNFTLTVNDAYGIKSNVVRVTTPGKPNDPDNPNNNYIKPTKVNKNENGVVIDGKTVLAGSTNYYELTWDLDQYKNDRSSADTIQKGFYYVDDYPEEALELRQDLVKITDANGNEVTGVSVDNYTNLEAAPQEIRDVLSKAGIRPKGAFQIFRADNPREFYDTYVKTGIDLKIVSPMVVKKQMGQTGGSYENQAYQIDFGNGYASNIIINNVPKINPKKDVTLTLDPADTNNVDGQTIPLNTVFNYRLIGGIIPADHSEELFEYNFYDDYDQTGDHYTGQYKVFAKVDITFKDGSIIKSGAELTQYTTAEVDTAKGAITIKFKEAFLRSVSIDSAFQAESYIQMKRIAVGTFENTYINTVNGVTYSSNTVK

T3: FL^AgI/II (S. mutans UA159 Antigen I/II, full length recombinant construct) (Streptococcus mutans UA159), P23504
T3 chain: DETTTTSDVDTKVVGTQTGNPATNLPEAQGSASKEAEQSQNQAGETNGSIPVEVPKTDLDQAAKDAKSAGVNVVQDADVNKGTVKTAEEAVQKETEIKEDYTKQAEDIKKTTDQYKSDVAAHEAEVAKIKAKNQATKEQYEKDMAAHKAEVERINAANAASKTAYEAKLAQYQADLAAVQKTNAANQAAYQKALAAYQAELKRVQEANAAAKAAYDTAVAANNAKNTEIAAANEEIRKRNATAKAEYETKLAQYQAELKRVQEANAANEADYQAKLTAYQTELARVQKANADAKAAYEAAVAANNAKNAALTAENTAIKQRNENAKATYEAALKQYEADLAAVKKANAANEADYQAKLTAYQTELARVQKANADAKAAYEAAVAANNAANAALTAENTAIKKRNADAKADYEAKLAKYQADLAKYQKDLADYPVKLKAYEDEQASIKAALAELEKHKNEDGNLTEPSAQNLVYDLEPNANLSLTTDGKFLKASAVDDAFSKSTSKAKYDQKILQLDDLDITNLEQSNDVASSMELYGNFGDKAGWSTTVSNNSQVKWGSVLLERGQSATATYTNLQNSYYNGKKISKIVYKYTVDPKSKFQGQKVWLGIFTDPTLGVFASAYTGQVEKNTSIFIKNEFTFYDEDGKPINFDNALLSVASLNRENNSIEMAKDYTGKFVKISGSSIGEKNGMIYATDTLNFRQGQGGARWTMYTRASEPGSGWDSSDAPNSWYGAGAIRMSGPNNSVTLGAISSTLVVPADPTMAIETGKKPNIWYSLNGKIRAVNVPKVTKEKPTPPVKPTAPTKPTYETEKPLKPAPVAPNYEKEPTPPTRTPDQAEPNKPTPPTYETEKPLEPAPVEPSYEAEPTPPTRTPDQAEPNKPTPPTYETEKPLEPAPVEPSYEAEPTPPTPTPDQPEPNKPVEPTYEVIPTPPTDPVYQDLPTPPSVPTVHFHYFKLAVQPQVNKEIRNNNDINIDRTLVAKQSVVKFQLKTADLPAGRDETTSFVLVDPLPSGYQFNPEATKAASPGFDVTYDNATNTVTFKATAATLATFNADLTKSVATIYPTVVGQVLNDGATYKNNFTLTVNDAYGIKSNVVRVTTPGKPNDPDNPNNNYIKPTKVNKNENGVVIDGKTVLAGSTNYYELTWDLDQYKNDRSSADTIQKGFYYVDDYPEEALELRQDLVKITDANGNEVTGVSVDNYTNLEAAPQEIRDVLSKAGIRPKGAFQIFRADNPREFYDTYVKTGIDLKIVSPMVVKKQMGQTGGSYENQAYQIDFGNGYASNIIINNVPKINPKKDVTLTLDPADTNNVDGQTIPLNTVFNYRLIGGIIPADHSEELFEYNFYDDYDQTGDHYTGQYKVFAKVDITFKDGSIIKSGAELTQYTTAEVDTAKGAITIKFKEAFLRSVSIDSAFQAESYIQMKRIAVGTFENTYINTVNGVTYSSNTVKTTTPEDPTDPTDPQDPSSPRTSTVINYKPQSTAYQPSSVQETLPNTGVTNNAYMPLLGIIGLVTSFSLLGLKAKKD

T4: FL^SspB (S. gordonii DL1 SspB, residues 39-1433) (Streptococcus gordonii DL1), P16952
T4 chain: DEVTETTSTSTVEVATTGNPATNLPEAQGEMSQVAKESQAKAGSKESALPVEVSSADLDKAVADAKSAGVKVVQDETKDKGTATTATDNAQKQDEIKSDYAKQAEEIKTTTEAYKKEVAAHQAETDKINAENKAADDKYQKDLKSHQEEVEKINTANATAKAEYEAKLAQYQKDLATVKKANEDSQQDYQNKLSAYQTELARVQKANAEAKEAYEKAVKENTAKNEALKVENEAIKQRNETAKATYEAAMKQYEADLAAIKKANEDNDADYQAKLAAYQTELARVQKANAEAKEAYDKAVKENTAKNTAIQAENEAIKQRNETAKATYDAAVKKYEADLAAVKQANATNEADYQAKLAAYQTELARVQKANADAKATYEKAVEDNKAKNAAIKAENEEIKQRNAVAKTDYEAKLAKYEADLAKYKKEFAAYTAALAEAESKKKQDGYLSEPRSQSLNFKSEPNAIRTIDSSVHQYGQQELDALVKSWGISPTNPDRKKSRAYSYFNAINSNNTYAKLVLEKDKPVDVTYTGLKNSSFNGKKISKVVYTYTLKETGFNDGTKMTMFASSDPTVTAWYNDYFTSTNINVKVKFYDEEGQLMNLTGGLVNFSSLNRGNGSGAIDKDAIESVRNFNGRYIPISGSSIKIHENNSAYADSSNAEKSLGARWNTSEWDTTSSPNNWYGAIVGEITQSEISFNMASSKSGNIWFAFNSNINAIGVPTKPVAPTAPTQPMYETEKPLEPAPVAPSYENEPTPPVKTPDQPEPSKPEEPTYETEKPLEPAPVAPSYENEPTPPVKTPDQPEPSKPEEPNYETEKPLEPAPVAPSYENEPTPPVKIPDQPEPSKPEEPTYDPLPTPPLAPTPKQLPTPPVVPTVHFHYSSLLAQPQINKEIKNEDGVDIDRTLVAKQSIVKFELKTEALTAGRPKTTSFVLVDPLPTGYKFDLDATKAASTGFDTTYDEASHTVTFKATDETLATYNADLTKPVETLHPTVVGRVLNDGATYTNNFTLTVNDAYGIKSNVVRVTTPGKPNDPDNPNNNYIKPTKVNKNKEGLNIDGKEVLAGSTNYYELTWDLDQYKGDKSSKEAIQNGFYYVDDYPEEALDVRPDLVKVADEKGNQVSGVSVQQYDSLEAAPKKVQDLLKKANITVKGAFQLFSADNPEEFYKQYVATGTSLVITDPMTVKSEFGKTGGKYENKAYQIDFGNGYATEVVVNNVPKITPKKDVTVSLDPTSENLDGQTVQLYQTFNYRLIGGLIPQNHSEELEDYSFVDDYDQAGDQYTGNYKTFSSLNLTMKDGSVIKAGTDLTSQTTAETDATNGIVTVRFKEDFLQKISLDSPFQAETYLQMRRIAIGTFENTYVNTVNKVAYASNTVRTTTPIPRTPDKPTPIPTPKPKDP


Experiments:
[1] = molecular target: A3VP1^SspB (S. gordonii DL1 SspB, residues 386-805) (Streptococcus gordonii DL1) (UniProt P16952)
[2] = molecular target: C123^SspB (S. gordonii DL1 SspB, residues 913-1406) (Streptococcus gordonii DL1) (UniProt P16952)
[3] = molecular target: T1, A3VP1^AgI/II (Streptococcus mutans …)
[4] = molecular target: T2, C123^AgI/II (Streptococcus mutans …)
[5] = molecular target: T3, FL^AgI/II (S. mutans UA159 Antigen …)
[6] = molecular target: T4, FL^SspB (S. gordonii DL1 SspB, residues …)
[7] = molecular target: A3VP1^SspB (S. gordonii DL1 SspB, residues 386-805) (Streptococcus gordonii DL1) (UniProt P16952); test: SPR; 2 µM A3VP1^SspB incubated with 0.005 mM peptide, over immobilized iSRCR1
[8] = molecular target: T4, FL^SspB (S. gordonii DL1 SspB, residues …); test: SPR; 2 µM FL^SspB incubated with 0.005 mM peptide, over immobilized iSRCR1
[9] = molecular target: T3, FL^AgI/II (S. mutans UA159 Antigen …); test: SPR; 2 µM FL^AgI/II incubated with 0.005 mM peptide, over immobilized iSRCR1
[10] = molecular target: T1, A3VP1^AgI/II (Streptococcus mutans …); test: SPR; 2 µM A3VP1^AgI/II incubated with 0.005 mM peptide, over immobilized iSRCR1
[11] = molecular target: GbpC (S. mutans), glucan binding protein C (Streptococcus mutans); test: SPR, peptide over immobilized GbpC

Row | Binder | % change of adherence to iSRCR123 [1] | % change of adherence to iSRCR1 [2] | % change of adherence to iSRCR123 [2] | % improvement of adherence to iSRCR123 [3] | % change of adherence to iSRCR1 [4] | % change of adherence to iSRCR123 [4] | % improvement of adherence to iSRCR123 [5] | % improvement of adherence to iSRCR123 [6] | % change of adherence to iSRCR1 [7] | % improvement of adherence to iSRCR1 [8] | % improvement of adherence to iSRCR1 [9] | % improvement of adherence to iSRCR1 [10] | Ka [11] | Kd [11] | koff [11] | kon [11]
1 | QGRVEVLYRGSWGTVCK-{FAM} [SRCRP2 peptide with fluorescein amidite (FAM) at the carboxyl end (…-[FAM])] | 3% | 4% | 5% | 16% | 2.3% | 7% | 8% | 91% | 3% | 97% | 8% | 13% |  |  |  | 
2 | ETNDANVVARQL (modifications not checked) [SRCR peptide …] |  |  |  |  |  |  |  |  |  |  |  |  | 2.57e+08 M⁻¹ | 3.89 nM | 0.0573 s⁻¹ | 1.47e+07 M⁻¹ s⁻¹
